# B1: KASH2 peptide (Nesprin-2, residues 6857–6885) co-expressed with SUN2(522–717) (peptide)
# peptide: not shown
# B2: KASH1 peptide (Nesprin-1, residues 8769–8797) co-expressed with SUN2(522–717) (peptide)
# peptide: not shown
# B3: SUN2(522–717), minimal SUN domain of human SUN2 used for crystallography (domain or fragment, UniProt Q9UH99 522-717, looked up)
# chain: GVTEEQVHHIVKQALQRYSEDRIGLADYALESGGASVISTRCSETYETKTALLSLFGIPLWYHSQSPRVILQPDVHPGNCWAFQGPQGFAVVRLSARIRPTAVTLEHVPKALSPNSTISSAPKDFAIFGFDEDLQQEGTLLGKFTYDQDGEPIQTFHFQAPTMATYQVVELRILTNWGHPEYTCIYRFRVHGEPAH
# B4: His-SUN2(335–717), luminal domain of human SUN2 (predicted coiled-coil regions and SUN domain) (domain or fragment, UniProt Q9UH99 335-717, looked up)
# chain: LVSRREAALKEDFRRETAARIQEELSALRAEHQQDSEDLFKKIVRASQESEARIQQLKSEWQSMTQESFQESSVKELRRLEDQLAGLQQELAALALKQSSVAEEVGLLPQQIQAVRDDVESQFPAWISQFLARGGGGRVGLLQREEMQAQLRELESKILTHVAEMQGKSAREAAASLSLTLQKEGVIGVTEEQVHHIVKQALQRYSEDRIGLADYALESGGASVISTRCSETYETKTALLSLFGIPLWYHSQSPRVILQPDVHPGNCWAFQGPQGFAVVRLSARIRPTAVTLEHVPKALSPNSTISSAPKDFAIFGFDEDLQQEGTLLGKFTYDQDGEPIQTFHFQAPTMATYQVVELRILTNWGHPEYTCIYRFRVHGEPAH
# Columns and labels:
# [1] = target: B3; assay: crystal structure
# [2] = target: B3; assay: crystal structure; remark: listed apart in the source
# crystal structure = target: the molecule itself; assay: crystal structure
# AUC = target: the molecule itself; assay: AUC
binder,measurement,setting,value
B1,stoichiometry N,[1],3 KASH2 peptides per SUN2 trimer
B2,binding result,[2],binds
B3,stoichiometry N,crystal structure,3
B4,stoichiometry N,AUC,3
